The target in assay [1] is T1, EGFRvIII-specific peptide (…).
T1 sequence (peptide): LEEKKGNYVVTDHC
The assay can be described thus: concentration-dependent ELISA in triplicate, Prism nonlinear regression (apparent affinity).

For assay [2], the target named is EGFRvIII recombinant protein (rhEGFRvIII protein) used in ELISA (human) (UniProt P00533). Described as above.

B1: B4A3 scFv protein (anti-EGFRvIII scFv) (scFv, part only; not given: scFv linker, domain order, tags, V domains shown, not shown: another chain or arm of the molecule; small tags and cut ends)
VH: EVQLLESGGGLVQPGGSLRLSCAASGFTFSNYYMSWVRQAPGKGLEWVSGTSPNGGSKYYADSVKGRFTISRDNSKNTLYLQMNSLRAEDTAVYYCAKGRRKLRATRFDYWGQGTLVTVSS
VL: QSVLTQPPSASGTPGQRVTISCTGSSSNIGNNYVSWYQQHPGTAPKLLIYSDSNRPSGVPDRFSGSKSGTSASLAISGLRSEDEADYYCATWDASLSAYVFGGGTKLTVL
On to B1, for which the Kd in assay [1] came out at 0.272 nM; in assay [2], 2.35 nM.

(Values after US20190031761A1.)
